Consider one substance from patent US20260297164A1, “ANTI-FIBROTIC PEPTIDES AND USES THEREOF” (Deackt, Inc., priority 2021, published 2026).

This data set concerns PI3K/Akt/mTOR signaling in lung fibroblasts. Nature of the data set: TGF-β1 stimulation of PI3K/Akt/mTOR signaling in lung fibroblasts. The data set is classed as cell-based, mouse. The note with it: TGF-β1 10 ng/ml, 24 h. The procedure:
FIG. 3. CD148 deficiency enhances PI3K/Akt/mTOR signaling which results in low autophagy, high p62 expression in lung fibroblasts. (A) Mouse lung fibroblasts were isolated from Ptprj^fl/fl Col1a2^Cre-ER(T)+/0 mice (Ptprj−/−) and Col1a2^Cre-ER(T)+/0 mice (WT) and then treated with 4-OHT (1 μM) for 24 h. After 4-OHT treatment, cells were exposed to TGF-β1 (10 ng/ml) for 24 h. After stimulation, cells were harvested, and the expression of p-p85 (Tyr458), p-Akt (Ser473), pmTOR (Ser2448), p-p70 S6 kinase (Thr389), p-S6 ribosomal protein (Ser235/236) and CD148 (n=4 for each condition) in lysates was determined by Western immunoblotting and corresponding densitometry (ImageJ software). Data were normalized to corresponding dephospho-forms or GAPDH. (B) WT and Ptprj−/− cells were stimulated with TGF-β1 (10 ng/ml) for 24 h. Then cells were lysed and LC3-I and -II and p62 were measured by western blot (n=4). […] Then, autophagy flux was measured by LC3-II accumulation in the absence or presence of lysosomal acidification inhibitor chloroquine (25 μM) at 2, 4 and 6 h (n=4). […] LC3 puncta positive cells were quantified using ImageJ (D). […]
Polyacrylamide gel electrophoresis and immunoblotting were performed according to standard methods. […] The signals were detected by ECL (Thermo Fisher Scientific, Waltham, MA). […]

Turning to TGF-β1, the “phosphorylation of PI3K (p85 subunit), Akt, mTOR and mTOR-related signaling proteins (p70 S6-kinase and S6)” value is given as “upregulated”.
